The values that follow come from patent US20090252754A1, “Vaccines containing the hiv tat protein as an adjuvant for the enhancement of cytotoxic t-cell responses” (priority 2003, published 2009).

Positions count from the first letter of the chain named. Where two headings read alike, the source gives them in different places.

For one assay, the system named is LMP2. Kind of assay: LMP2 expression in splenocytes of mice treated i.m. with Tat (Western blot). To be noted: Balb/c mice, 1 μg i.m., 3 consecutive treatments. The assay is classed as in vivo. An excerpt: Equal amounts of proteins were loaded on a 12% SDS-PAGE gel and electroblotted onto Protran nitrocellulose membranes (Schleicher & Schuell, Keene, Hampshire, USA). The blots were probed with antibodies specific for α2, LMP2, LMP7, MECL1, and PA28α subunits (Affinity, Exeter, UK) and developed by enhanced chemiluminescence (ECL, Amersham Pharmacia Biotech, Uppsala, SW).
Animal use was according to national and institutional guidelines. Seven-to-eight week old female Balb/c mice (Nossan, Milan, Italy) were injected with native monomeric biologically active Tat protein (1 μg) resuspended in degassed sterile PBS. Control mice were injected with oxidised Tat (1 μg) or with PBS alone. Samples (100 μl) were given by intramuscular (i.m.) injections in the quadriceps muscles of the posterior legs. Each experimental group consisted of three mice, and the experiment was repeated twice. Mice were boosted at days 11 and 20 after the first injection. Seven days after the last injection, animals were anaesthetised intraperitoneally (i.p.) with 100 μl of isotonic solution containing 1 mg of Inoketan (Virbac, Milan, Italy), and 200 μg Rompun (Bayer, Milan, Italy) and sacrificed to collect spleens. Mononuclear cells from individual spleens were purified using cells strainers, resuspended in PBS containing 20 mM EDTA, and treated with a red blood cells lysis buffer for 4 minutes at room temperature. […]

Another assay relates to HIV-1 LTR. To be noted: in contrast to wild-type Tat, cited from earlier work.
Assay [1] has as its system proteasome subunits (α2, LMP2, LMP7, MECL1) in Jurkat cells. The experiment in a line: Western blot of proteasome subunits in Jurkat cells expressing or treated with Tat, Tat mutants or Tat peptides. To be noted: Jurkat cells expressing mutant. Type of assay: cell-based, human. As for the experimental part: Jurkat T cells expressing Tat or mutated Tat (referred to as Tat22, wherein a Cys at position 22 is mutated) have previously been described (1). Cells were cultured in a medium supplemented with 800 μg/ml neomycin (Sigma, St. Louise, […].).
Cells were lysed with glass beads as previously described (4). Supernatants were ultracentrifuged for 1 h at 100,000 g and loaded into an affinity column containing a matrix derivatised with the MCP21 mAb specific for the α2 subunit of the proteasome (Affinity, Exeter, UK). Proteasomes were eluted with 25 mM Tris-HCl pH 7.5 containing 2 M NaCl, and 0.5 ml fractions were collected. Homogeneity of the eluted material was confirmed by analysis of an aliquot by SDS 12% PAGE and Coomassie blue staining of the gel. Fractions containing proteasomes were combined and dialysed against 25 mM Tris-HCl pH 7.5. Protein concentration was determined using the BCA method (Pierce Chemical, Rockford, Ill.).
Equal amounts of proteins, or equal amounts of purified proteasomes, were loaded on a 12% SDS-PAGE and electro-blotted onto Protran nitrocellulose membranes (Schleicher & Schuell, Keene, Hampshire, USA). Blots were probed with Abs specific for α2, LMP2 LMP7, MECL1, and PA28α subunits (Affinity), and developed by enhanced chemi-luminescence (ECL, Amersham Pharmacia Biotech, Uppsala, SW).

B1: oxidised Tat: oxidised form of the HIV-1 Tat protein, used as control (protein, UniProt P04608 1-86, looked up)
Protein Tat: MEPVDPRLEPWKHPGSQPKTACTNCYCKKCCFHCQVCFITKALGISYGRKKRRQRRRAHQNSQTHQASLSKQPTSQPRGDPTGPKE
modifications: oxidised
notes: oxidised form of the HIV-1 Tat protein, used as control
Consider B1, for which the “LMP2 expression in splenocytes” value with LMP2 is recorded as “no effect”.

B2: Tat22: mutated HIV-1 Tat carrying glycine instead of cysteine 22 (SEQ ID NO 286) (protein)
chain: B1 Protein Tat with C22G, A58P, H59P, N61G, A67V, P77S
For B2, in the assay with HIV-1 LTR, the “reactivation of latent infection” value was “do not induce” and the “transactivation of the HIV-1 LTR” value is “no effect”. Moreover, the “reactivation of latent infection” value in the assay with HIV-1 LTR (listed as Tatcys22) is listed as “does not induce”. For the same molecule, the “subunit composition of proteasomes” value in assay [1] is listed as “modifies the subunit composition of proteasomes”.
